Source: patent publication US20240360226A1 (AstraZeneca / MedImmune, published 2024)

Biological target: c-MET on human tumour cells (NCI-H1975, HCC827) (human) (UniProt P08581)
Assay: cell-based or functional assay

Sequence of c-MET on human tumour cells (NCI-H1975, HCC827) (human) (P08581 25-1390): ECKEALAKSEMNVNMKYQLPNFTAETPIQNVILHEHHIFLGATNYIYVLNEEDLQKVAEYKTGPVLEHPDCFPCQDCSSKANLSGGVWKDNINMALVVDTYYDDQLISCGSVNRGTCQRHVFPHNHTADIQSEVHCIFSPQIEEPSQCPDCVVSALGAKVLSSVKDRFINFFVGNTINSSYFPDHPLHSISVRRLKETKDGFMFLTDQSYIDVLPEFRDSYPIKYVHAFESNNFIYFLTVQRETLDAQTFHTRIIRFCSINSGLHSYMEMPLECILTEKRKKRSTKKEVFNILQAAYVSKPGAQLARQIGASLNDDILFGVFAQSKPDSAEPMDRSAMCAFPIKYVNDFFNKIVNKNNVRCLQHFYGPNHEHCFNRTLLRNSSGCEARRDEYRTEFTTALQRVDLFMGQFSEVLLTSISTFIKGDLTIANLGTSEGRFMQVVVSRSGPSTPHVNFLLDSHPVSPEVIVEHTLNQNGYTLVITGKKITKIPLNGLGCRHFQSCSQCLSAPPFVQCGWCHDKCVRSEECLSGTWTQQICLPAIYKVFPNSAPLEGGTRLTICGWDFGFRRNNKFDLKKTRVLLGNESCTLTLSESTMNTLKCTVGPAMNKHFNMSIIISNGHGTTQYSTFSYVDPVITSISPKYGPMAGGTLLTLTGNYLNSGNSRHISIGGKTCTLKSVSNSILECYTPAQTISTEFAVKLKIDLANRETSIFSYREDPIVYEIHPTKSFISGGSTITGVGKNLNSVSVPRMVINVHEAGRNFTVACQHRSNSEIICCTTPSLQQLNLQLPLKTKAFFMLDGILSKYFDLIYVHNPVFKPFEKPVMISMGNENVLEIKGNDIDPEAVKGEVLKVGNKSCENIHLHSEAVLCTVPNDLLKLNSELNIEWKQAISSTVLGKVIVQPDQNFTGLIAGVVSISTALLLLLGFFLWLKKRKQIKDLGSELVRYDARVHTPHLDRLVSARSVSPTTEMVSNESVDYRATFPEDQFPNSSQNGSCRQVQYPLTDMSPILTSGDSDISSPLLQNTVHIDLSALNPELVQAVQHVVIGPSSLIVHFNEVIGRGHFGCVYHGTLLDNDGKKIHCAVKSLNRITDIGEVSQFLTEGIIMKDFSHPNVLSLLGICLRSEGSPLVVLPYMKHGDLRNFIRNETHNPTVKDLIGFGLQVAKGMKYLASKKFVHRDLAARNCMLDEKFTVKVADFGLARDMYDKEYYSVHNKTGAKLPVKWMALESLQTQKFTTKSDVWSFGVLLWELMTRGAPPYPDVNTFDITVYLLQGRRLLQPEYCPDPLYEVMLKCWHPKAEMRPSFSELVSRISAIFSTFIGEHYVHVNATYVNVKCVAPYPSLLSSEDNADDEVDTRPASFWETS

- cytoplasmic intensity of AF647-labelled antibody in H1975 cells, fold higher for RAA22/B09 DuetMab than for B09-IgG (FIG. 7B): 4.7 fold
B1: B09/R347 (bispecific antibody, part only; not given: non-binding arm and constant regions, V domains shown, not shown: another chain or arm of the molecule; a dimerising Fc or GST; small tags and cut ends)
VH: QVQLVQSGAEVKKPGASVKVSCKASGYTFTDYYIHWVRQATGQGLEWMGWMNPNSGNTGYAQKFQGRVTMTRDTSISTAYMELSSLRSEDTAVYYCARGQGYTHSWGQGTMVTVSS
VL: DIQMTQSPSTLSASVGDRVTITCRASEGIYHWLAWYQQKPGKAPKLLIYKASSLASGVPSRFSGSGSGTEFTLTISSLQPDDFATYYCQQYSNYPPTFGGGTKLEIK
modifications: AlexaFluor-647 or pHAb dye label on amines; positions not defined
